Molecular target: TLR5

For “FliC180 protein of S. Typhimurium (Phase I FliC flagellar antigen with the ΔfliC180 deletion) (from UniProt P06179) (ligand)”, the NF-κB production (% higher than the FliC+ strain) was 50.
